A protein production outcome set (Wang et al. 2014)

assay: label from the status in PepcDB records

Sequence | protein production
VQLVRLLEEKIKSLQIEIENLRKELNYYKAEMEKMLSPPLIEAVVLDVLPDGRVLVRSSSGPNLVVNIASHIDQKLIKPGISVALNQRGSTILEVLPQKEDPIVKTMEIIERPN | not failed
VRISRPDVLLNIHIAQTTCTLSLDSSGESLHRRGYRQEAVEAPLNEVLAAGMILMTGWKGECDLIDPMCGSGTIPIEAALIARNIAPGVFRKEFAFEKWGDFDQNLFDRIYNDDSQEREFTHKIYGYDNNPKANEIATHNVKAAGVSKDIILKLQPFQQFEQPAEKSIIITNPPYGERISTNDLLGLYNMIGERLKHAFVGNDAWILSYREECFDQIGLKPSVKTPLFNGPLECEFRKYQIFDGKY | failed
VRRIKLGSQGLEVSAQGLGCMGLSAFYGTPKPETEAIALIHHAIHSGVTFLDTSDIYGPETNELLLSKALKDGVREKVELATKYGIRYAEGKVEFKGDPAYVRAACEASLMRVDVACIDLYYQHRIDTRVPIEITIGELKKLVEEGKIKYIGLSEASASTIRRAHAVHPITALQIEWSLWSRDVEEDIIPTCRELGIGIVAYSPLGRGFFASGPKLVENLDNNDVRKTLPRFQQENLDHNKILFEKVSAMSEKKGCTPAQLALAWVHHQGDDVCPIPGTTKIENLNQNIGALSVKLTPEEMSELESLAQP | failed
VRSQVLKYMVPGARVIRGLDWKWRDQDGSPQGEGTVTGELHNGWIDVTWDAGGSNSYRMGAEGKFDLKLAPGY | not failed
VSDMNGLGFKPFDLVIPFAVRKGEITGEVHMPSGKTATPEIVDNKDGTVTVRYAPTEVGLHEMHIKYMGSHIPESPLQFYVNYPNSGS | not failed
VSDPLHVTFVCTGNICRSPMAEKMFAQQLRHRGLGDAVRVTSAGTGNWHVGSCADERAAGVLRAHGYPTDHRAAQVGTEHLAADLLVALDRNHARLLRQLGVEAARVRMLRSFDPRSGTHALDVEDPYYGDHSDFEEVFAVIESALPGLHDWVDERLARNGPS | not failed
VSKAVQYMAKRRIGALIVFEKETGLQDYIETGIAMDSNISQELLINVFIPNTPLHDGAMIIQGTKIAAAASYLPLSDSPKISKSLGTRHRAAVGISEVSDAFTVIVSEETGDISVTFDGKLRRDISNEIFEELLAEHWFGTRFQKKGVK | failed
VSKAVQYMAKRRIGALIVFEKETGLQDYIETGIPMNSDISQELLTNVFIPNTPLHDGAMIIQGSKIAVAASYLPLSDSVKISKSLGTRHRAAVGISEVSDAFTVVVSEETGDISVTFDGKLRRDISKDVFEELLAEHWFGAHFQKKGVNS | not failed
VSRDENSWLIDGATPLEEVTRVLDIAYFPDEENYETISGFMMYMLRKIPKKTDSVVYGKYKFEVIDTENFKIDQILVSLVKEQE | not failed
VVIQFYEERLTWHTGSGNGNGNTNSVNLGSSGGLGSVGGSGAGDDTAPGSVGTTGGGSNIDGGDEEDPEPASPIGSINQDENIKPDESSELDNGQPDADD | failed
VVNDEWLSILGLSRQDITNHISDWDGLIHPNDDQFMKKTVQTHILSGKNYVVEFRMKHADGRWVWIQGSGSVIEYDENTHEPVRLCGTHQDITVRK | failed
VWRPKSVSRDDVMVTEYGAVTSERPLPAGTTYSATSVTPPDDPEVLRTSGRDYPADIESRYTGVPASTSAQVGPFTDRLTEDSDSPYQTAATIEQWLEANKNYSLNVSQPPEDDVASEFIFQMDKGYCEYFATSMVVMLRSQDIPARYVVGYSTGERTGQNQYTVRGMNAHAWVEVYFEGVGWVKFDPTPGQ | failed
WIAQIHKTKTNYFLNLLKEGKIPLRPGIKRLLDELRKNNIKIAIATTTTYENVSTLLQCTLGDSALEWFDVIGAGDIVSKKKPAPDIYEWVLNQLNLPAEACIAIEDSENGLKSATAAGIKTIITISEYTREQNFSYAALVLEDLESTDHTHQIAAQSFDKPLSVQTLSDLLN | failed
WILASTTEGAPSVAPLNVTVFLNESSDNVDIRWMKPPTKQQDGELVGYRISHVWQSAGISKELLEEVGQNGSRARISVQVHNATCTVRIAAVTRGGVGPFSDPVKIFIPAH | not failed
WRKDIVLPKDQAKGVRPYNPKFKDSEYFSRYNALINDERLIEFAKKNNYKITFFPHPDIQQQIVDFEKHDYVEFADYNSSYQMLFNSSNIMITDFSSVAFDFAYEKKPVIYYQYEKSYHFKLDYYDYKKMGFGDVLENHNSLVDKVIYYMKNNSRMEDKYRKRVDNFFAYTDKNNRNRIYNAILE | not failed
YDDEDYQAEQDRREEQRRAAIAQTGVEVIPVHGVLVSRGSHLNACETMTSYEGLRAALNKAITDPMVEHIVLDIDSPGGSAVGAFELAADIRAATKIKPITGLVNFMAYSGGYLIASACTEVVVSLTSGVGSIGVVASHMDRSKMIEGMGVKVTTVFAGAHKNDLSPNEPITEQSLQVLNEVVQESYQLFTTHVAEYRGRDVADIIATEAACYRGSSAIAIGLADRLESPQ | failed
YDLLCRERDNFRILVAITNAVLSRLDIDELVSEVAKEIHHYFNIDAISIVLRSHRKNKLNIYSTHYLDEHHPAHEQSEVDEAGTLTERVFKSKEMLLINLNERDPLAPYERMLFDTWGNQIQTLCLLPLMSGKTMLGVLKLAQCEEKVFTTANLKLLRQIAERVAIAVDNALAYQEIHRLKER | failed
YKGQYFTPPHIAQAMAAMTLMDCHSIIEKRGFMKLQEPTCGSGVMIIGSYNHLRQEHFNPQQQLWVRAQDLDFTTAMMCYIQMTLLHIPGEVIIGNTLT | failed
YLDLWQTQDAKIRAKLAAVFQAEQNLNEAAIAYCLARALPEETAIFFANSMVVRYAEFFWQLNDQQILPYFNRGANGIDGTLSTALGIAENHSPAVLLTGDLALLHDINGFLTLSKFTGSLTIIVINNQGGGIFEMLPIAEEKDIFEDYFATPQTVEFSKVCDLYGIEYQAIQTKADLMQTCAILPPRGVRLLEVKTNRNQAMTWLKDLFQ | failed
YLKDLSLLISNDKQTILYAPTWKGNSVSKVKNDVFQIISDMNYLEEKIGSDYNVLIKVHPFLYSEASKVSELKGKLIPDFIDTNQLLSTVDILITDYSSIFFDFLVTDRPILFYMWDADDYNKQRGKYINNEDLPGPVLYNVRELVEAIGNIHQVKSEFQTNYEKNKVKFTNHDDGNVTKRVVEKIFK | failed
YNFSFLSPQGLSFASQGPSAPFWSVFTPRVIGTAVARYNFAARDMRELSLREGDVVRIYSRIGGDQGWWKGETNGRIGWFPSTYVEEEGIQ | failed
YRALYPFEARNHDEMSFNSGDIIQVDEKTVGEPGWLYGSFQGNFGWFPCNYVEKMPSSENEKAVSPKKALLPPTVSLSAT | not failed
YTFIGNSPVPKSYSLSEMRDAFIKFFEKRGHKFLKPYPVVPRWREDVLLVNASIYDFQPHVTSGIVRPPGNPIVMSQPSIRMNDVDLVGITGRHLTSFEMLCHDSFNTKDKTVYWKEETVHYCYDFLTEGLGIDGKLISFKEKPWSGGGNAGNALEVFVRGLEVATLVFMDMKEDPNGPYEIDGIRYSKMDMRIVDTGYGLERLTWLSQGTPTVYQAIYPDIIQHVMKNSSVSDIDEEFLSEVVKASVMKEP | failed
YTISEVVAFTGLTAHTLRWYERIGLMPHIDRSHTGQRRYSNRDLDWLAFVGKLRLTGMPVADMVRYAEMVREGDGTYTQRYEILESTRRDVLARIAELQDTLAVLDHKISFYADAGRALTSERSR | failed
YTVEPVQDGERSVTLRRAGGTPLVAAMYHLPAAGSPDFVGLDLAATILADTPSGRLYHALVPTKLASGVFGFTMDQLDPGLAMFGAQLQPGMDQDKALQTLTATLESLSSKPFSQEELERARSKWLTAWQQTYADPEKVGVALSEAIASGDWRLFFLQRDRVRDAKLDDVQRAAVAYLVRSNRTEGRYIPTEKPQRAPLAQRADLAAV | not failed
YYFKEYHLPYPKGVIFSGNIPPCFYHKSDPPLHLLPDKIFLEEVSKLGGIPGKIIKEKQFVEYFVPIIKNDFKLIENYYFQQKQEKFPVKSLICSGKDDKFRVKDLVQWENYFIDKCSISLFKGGHFYIDDNIASLCNQIKDFIY | failed
YYLIVSQLLGDTASVKLLVPPGANPHLFSLKPSDAKTLEEADLIVANGLGLEPYLEKYREKTVFVSDFIPALLLIDDNPHIWLDPFFLKYYIVPGLYQVLIEKFPEKQSEIKQKAEEIVSGLDTVIRDSFKALLPYTGKTVVMAHPSFTYFFKEFGLELITLSSGHEHSTSFSTIKEILRKKEQIVALFREPQQPAEILSSLEKELRMKSFVLDPLGVNGEKTIVELLRKNLSVIQEALK | not failed
